Data published in paper PMC10022779, “Purification and biochemical analysis of native AMPA receptors from three different mammalian species” (PLOS ONE, 2023).

Experiments:
Conditions in all cases: one partner purified
[1] = molecular target: T1, GluA2 in native GluA2-containing AMPARs from rat brain (Rattus norvegicus, Sprague Dawley, UniProt P19491); test: SEC; fluorescence-size exclusion chromatography (FSEC), GFP fluorescence; 15F1-GFP Fab added to membranes solubilized in 2% digitonin (w/v), equal masses of membranes from each mammal
T1 construct: AMPA receptor subunit GluA2, rat, endogenous in brain; also called native rat AMPARs; source: endogenous, rat (Sprague Dawley) brain membranes, solubilized in 2% digitonin

[2] = molecular target: T2, GluA2 in native GluA2-containing AMPARs from pig brain (Sus scrofa (pig), endogenous brain, UniProt A0A287AEG6); test: as above
T2 construct: AMPA receptor subunit GluA2, pig, endogenous in brain; also called native pig AMPARs; source: endogenous, pig brain membranes, solubilized in 2% digitonin

[3] = molecular target: T3, GluA2 in native GluA2-containing AMPARs from mouse brain (Mus musculus, C57BL/6, UniProt P23819); test: pull-down; immunoaffinity purification: 15F1-GFP incubated with digitonin-solubilized membrane supernatant (on ice, 20 min), 15F1-GFP-bound AMPARs held on Streptactin resin by the twin-Strep II tag, eluted with 8 mM d-desthiobiotin, then SEC (Superose 6) in TBS, 1 uM (R,R)-2b, 1 uM MPQX, 0.075% digitonin; read out by FSEC and silver-stained SDS-PAGE
T3 construct: AMPA receptor subunit GluA2, mouse, endogenous in brain; also called native mouse AMPARs; source: endogenous, mouse (C57BL/6) brain membranes, solubilized in 2% digitonin

Measured: binding result

T3 sequence (P23819 25-883): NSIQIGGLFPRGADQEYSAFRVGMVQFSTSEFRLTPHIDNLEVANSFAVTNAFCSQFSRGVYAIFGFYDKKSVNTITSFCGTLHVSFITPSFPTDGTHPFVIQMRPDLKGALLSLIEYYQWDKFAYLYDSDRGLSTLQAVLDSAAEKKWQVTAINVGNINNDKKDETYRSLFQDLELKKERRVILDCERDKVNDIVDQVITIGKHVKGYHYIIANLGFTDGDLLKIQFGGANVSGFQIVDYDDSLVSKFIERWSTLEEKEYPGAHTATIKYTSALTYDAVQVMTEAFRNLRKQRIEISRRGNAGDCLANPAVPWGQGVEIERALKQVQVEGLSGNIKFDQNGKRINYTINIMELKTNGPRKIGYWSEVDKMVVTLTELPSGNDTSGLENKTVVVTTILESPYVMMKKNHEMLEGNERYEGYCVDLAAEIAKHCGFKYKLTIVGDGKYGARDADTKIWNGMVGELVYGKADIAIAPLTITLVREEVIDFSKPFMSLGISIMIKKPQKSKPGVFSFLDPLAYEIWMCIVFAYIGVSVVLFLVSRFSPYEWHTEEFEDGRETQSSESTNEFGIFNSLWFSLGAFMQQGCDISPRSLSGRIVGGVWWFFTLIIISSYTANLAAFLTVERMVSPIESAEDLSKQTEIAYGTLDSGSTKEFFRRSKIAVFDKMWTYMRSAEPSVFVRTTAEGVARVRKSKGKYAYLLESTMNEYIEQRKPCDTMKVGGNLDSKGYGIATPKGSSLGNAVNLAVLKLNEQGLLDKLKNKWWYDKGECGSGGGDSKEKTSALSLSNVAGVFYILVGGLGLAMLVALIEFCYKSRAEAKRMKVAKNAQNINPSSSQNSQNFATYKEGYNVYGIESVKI
T1 sequence (P19491 22-883): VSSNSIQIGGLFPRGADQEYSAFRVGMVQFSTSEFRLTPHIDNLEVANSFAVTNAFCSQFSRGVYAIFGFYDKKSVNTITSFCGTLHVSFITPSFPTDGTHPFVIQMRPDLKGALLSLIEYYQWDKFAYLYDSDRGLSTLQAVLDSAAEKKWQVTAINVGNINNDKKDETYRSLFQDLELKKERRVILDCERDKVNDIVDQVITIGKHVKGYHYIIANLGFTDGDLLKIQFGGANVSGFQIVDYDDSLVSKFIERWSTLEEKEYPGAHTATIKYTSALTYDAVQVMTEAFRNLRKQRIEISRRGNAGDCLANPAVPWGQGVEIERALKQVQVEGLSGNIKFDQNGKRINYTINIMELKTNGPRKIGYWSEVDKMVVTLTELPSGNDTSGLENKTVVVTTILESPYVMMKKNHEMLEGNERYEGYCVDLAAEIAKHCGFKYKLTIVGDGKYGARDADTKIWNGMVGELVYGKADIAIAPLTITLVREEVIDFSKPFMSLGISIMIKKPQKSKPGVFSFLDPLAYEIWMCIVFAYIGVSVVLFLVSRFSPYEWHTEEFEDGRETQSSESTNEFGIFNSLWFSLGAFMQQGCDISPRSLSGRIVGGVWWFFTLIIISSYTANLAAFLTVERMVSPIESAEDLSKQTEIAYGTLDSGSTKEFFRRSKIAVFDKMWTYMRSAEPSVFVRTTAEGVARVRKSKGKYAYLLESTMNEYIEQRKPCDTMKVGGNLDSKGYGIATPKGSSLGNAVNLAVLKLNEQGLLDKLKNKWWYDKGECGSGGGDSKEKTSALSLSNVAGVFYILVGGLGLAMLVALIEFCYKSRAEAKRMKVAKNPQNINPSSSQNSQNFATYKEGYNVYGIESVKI

B1: 15F1-GFP Fab (Fab, V domains shown)
VH: QAQLKESGPGLVAPSQSLSITCTVSGFSLTNYGVHWVRQPPGKGLEWLGVIWAGGSTNYNSALMSRVSISKDNSKSQVFLKMNSLQTDDTVMYYCAREDYDYDWHFDVWGAGTTVTVSS
VL: EIQMTQTTSSLSASLGDRVTISCRASQDISNYLSWYQQKPDGTVKLLIYYTSRLHSGVPSRFSGSGSGIDYSLTINNLEQEDFATYFCQQGNTLPLTFGAGTKLELK
notes: Fab domain of the heavy chain of the 15F1 monoclonal antibody; Fab domain of the light chain of the 15F1 monoclonal antibody; On the heavy chain eGFP is followed by the twin-Strep II tag; also called 15F1 Fab; anti-GluA2 antibody fragment; not shown: eGFP, C-terminal, kept; twin-Strep II, C-terminal, kept
binds: all assays above
